Test results as given in paper PMC3365014, “Specific Recognition of p53 Tetramers by Peptides Derived from p53 Interacting Proteins” (PLoS ONE, 2012).

Key:
[1] = molecular target: WS100B(61–75), fluorescein-labeled; assay: fluorescence polarisation; fluorescence anisotropy at increasing NaCl; p53CTD titrated into 200 nM peptide; 10 mM sodium phosphate pH 7.2, 25°C; ln(Kd) against ln(NaCl activity) fit linearly and extrapolated to physiological ionic strength
[2] = molecular target: p53 monomer (Homo sapiens) (UniProt P04637); settings: cited from earlier work

Row | Estimated physiological Kd [1] [µM] | Substance | Kd [2] [nM]
1 | 19 | p53 C-terminal domain (p53CTD, residues 293–393) (from UniProt P04637 293-393) (domain or fragment) | –
2 | – | p53 monomer (from UniProt P04637) | 1
